Changes are numbered by the printed parent chain.
Assays:
[1] = target: T1, mouse CD137 protein (Biacore) (mouse, UniProt P20334 24-178, limits assumed); assay: SPR Biacore
T1 construct: Construct used as SPR analyte not described
T1 sequence: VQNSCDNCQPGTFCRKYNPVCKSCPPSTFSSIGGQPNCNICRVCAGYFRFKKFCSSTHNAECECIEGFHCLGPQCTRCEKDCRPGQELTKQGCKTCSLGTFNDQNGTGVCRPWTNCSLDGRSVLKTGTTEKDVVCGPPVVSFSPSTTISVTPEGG

[2] = target: T2, mouse CD137 fused with human FC fragment (mouse, UniProt P20334 24-178, limits assumed); assay: ELISA, coated CD137-Fc
T2 construct: also called mouse CD137-Fc; not shown: human Fc fragment
T2 sequence: T1 sequence

[3] = target: T3, full-length mouse CD137 on the cell surface (mouse, UniProt P20334 24-178); assay: flow cytometry, yeast display [Cont.]
T3 sequence: T1 sequence

Hu_CRD3 = target: T4, Hu_CRD3 (human, limits assumed); assay: flow cytometry, yeast display [Cont.]
T4 construct: also called human CD137 CRD3
T4 chain: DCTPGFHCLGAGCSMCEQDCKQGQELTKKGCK

[4] = target: T5, rat CD137 on the cell surface (rat, UniProt Q4W8J3 24-258); assay: flow cytometry, HEK293F cells expressing CD137
T5 sequence: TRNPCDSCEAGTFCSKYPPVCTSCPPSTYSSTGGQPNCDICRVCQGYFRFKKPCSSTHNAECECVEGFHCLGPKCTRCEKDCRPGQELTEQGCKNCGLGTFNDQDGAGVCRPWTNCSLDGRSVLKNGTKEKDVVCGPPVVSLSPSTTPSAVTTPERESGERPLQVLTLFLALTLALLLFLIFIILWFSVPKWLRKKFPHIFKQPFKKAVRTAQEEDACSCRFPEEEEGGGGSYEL

[5] = target: T3, full-length mouse CD137 on the cell …; assay: flow cytometry, HEK293F cells expressing CD137 or mutant
[6] = target: T6, human CD137-His6 (Sino Biological #10041-H08H) (human, UniProt Q07011 24-186); assay: SPR Biacore, IgG
T6 construct: Bought; also called human CD137 protein; not shown: His6 tag

B1: AC1097 (antibody, V domains shown)
VH: EVQLVQSGAEVKKPGESLRISCKGSGYSFSTYWISWVRQMPGKGLEWMGKIYPGDSYTNYSPSFQGQVTISADKSISTAYLQWSSLKASDTAMYYCARGYGIFDYWGQGTLVTVSS
VL: SYELTQPPSVSVSPGQTASITCSGDNIGDQYAHWYQQKPGQSPVLVIYQDKNRPSGIPERFSGSNSGNTATLTISGTQAMDEADYYCATYTGFGSLAVFGGGTKLTVL
[1]
  binding result: no binding
[2]
  binding result: no binding
[3]
  % in upper right quadrant: 0.59%
  Mean: 16200
Hu_CRD3
  % in upper right quadrant: 0.22%
  Mean: 12700
[4]
  binding result: no binding (tested: 100 nM (text paragraph 220))
[5]
  % in upper right quadrant: 0.005%

B2: AG10081 (antibody, human IgG4 S228P, kappa, V domains shown)
VH: EVQLVESGGGLVQPGGSLRLSCAASGYSISSGHYWGWIRQAPGKGLEWLALIDWYGDKYYSTSLKSRLTISRDNSKNTLYLQLNSLRAEDTAVYYCARSDYYGSHFDYWGQGTLVTVSS
VL: DIQLTQSPSSLSASVGDRVTITCRASESVDFDGFSFLAWYQQKPGKAPKLLIYDASNLETGVPSRFSGSGSGTDFTLTISSLQPEDFATYYCQQYDTLPRTFGQGTKVEIKR
notes: also called IgG of Fab 5299
[6]
  Kd: 6.9 nM
  koff: 0.0017 s⁻¹
  kon: 240000 M⁻¹ s⁻¹

B3: AG10082 (antibody, human IgG4 S228P, kappa, V domains shown)
VH: EVQLVESGGGLVQPGGSLRLSCAASGYTFSNYWIHWVRQAPGKGLEWVSYISGDGDTTYYADSVKGRFTISRDNSKNTLYLQLNSLRAEDTAVYYCAREGSTTVAGDWFAYWGQGTLVTVSS
VL: DIQLTQSPSSLSASVGDRVTITCRASQGIGSFLGWYQQKPGKAPKLLIYDASSLESGVPSRFSGSGSGTDFTLTISSLQPEDFATYYCQQYYSLVTFGQGTKVEIKR
notes: also called IgG of Fab 5300
[6]
  Kd: 13 nM
  koff: 0.0072 s⁻¹
  kon: 560000 M⁻¹ s⁻¹

B4: AG10083 (antibody, human IgG4 S228P, kappa, V domains shown)
VH: EVQLVESGGGLVQPGGSLRLSCAASGFSLSTSGVGVGWIRQAPGKGLEWIGEIYHSGSTYYSPSLKSRVTISRDNSKNTLYLQLNSLKAEDTAVYYCAREGSDVVTGDWFAYWGQGTLVTVSS
VL: B3 VL with G30S, F32V, G34A, Y91G, V95W
notes: also called IgG of Fab 5323
[6]
  Kd: 12 nM
  koff: 0.0069 s⁻¹
  kon: 570000 M⁻¹ s⁻¹

B5: AG10085 (antibody, human IgG4 S228P, kappa, V domains shown)
VH: EVQLVESGGGLVQPGGSLRLSCAASGFSLSTSGVGVGWIRQAPGKGLEWVSGISGAGDSTYYADSVKGRFTISRDNSKNTLYLQLNSLRAEDTAVYYCAREGSDTVLGDWFAYWGQGTLVTVSS
VL: DIQLTQSPSSLSASVGDRVTITCRASQDIRSYLAWYQQKPGKAPKLLIYDASNRATGIPSRFSGSGSGTDFTLTISSLQPEDFATYYCQQGYSIWTFGQGTKVEIKR
notes: also called IgG of Fab 5367
[6]
  Kd: 54 nM
  koff: 0.0079 s⁻¹
  kon: 150000 M⁻¹ s⁻¹

B6: AG10124 (antibody, human IgG4 S228P, kappa, V domains shown)
VH: B5 VH with S32G, G37A, G52S, A56Y, D58S, S59T, T105A, A112G
VL: B5 VL with R24Q, R30T, S31T, S93Y, I94L
notes: also called IgG of Fab 5302
[6]
  Kd: 6 nM
  koff: 0.003 s⁻¹
  kon: 500000 M⁻¹ s⁻¹

B7: AG10129 (antibody, human IgG4 S228P, kappa, V domains shown)
VH: EVQLVESGGGLVQPGGSLRLSCAASGFTFSSYWIHWVRQAPGKGLEWVSVISGDGDTTYYADSVKGRFTISRDNSKNTLYLQLNSLRAEDTAVYYCARSRGLVLDAFDYWGQGTLVTVSS
VL: DIQLTQSPSSLSASVGDRVTITCRASQSVSGRFLAWYQQKPGKAPKLLIYDASSLESGVPSRFSGSGSGTDFTLTISSLQPEDFATYYCQQYDYWPPYTFGQGTKVEIKR
notes: also called IgG of Fab 5353
[6]
  Kd: 19 nM
  koff: 0.006 s⁻¹
  kon: 310000 M⁻¹ s⁻¹
